This note sets out measurements from publication PMC9703590 (Protein Science : A Publication of the Protein Society, 2022).

One data set relates to AncCDT‐5 (A5). The data set is described as follows: discontinuous colorimetric assay of phenylpyruvate formation. The format is biochemical, synthetic construct. The conditions noted are these: 25°C, 50 mM Na2HPO4 substrate buffer, 100 nM enzyme.
The data set “SEC-MALS” deals with the molecule itself. The data set can be described thus: SEC-MALS.
Data set [1] deals with the molecule itself.

Like-named read-outs stand apart in the source and are kept apart here.

In general, Km refers to the substrate concentration at which the rate is half of its maximum. For `O=C(O)C(=O)CC1(C(=O)O)C=CC(O)C=C1` (stereo not shown) [prephenate], the Km in the data set on AncCDT‐5 (A5) stood at 81.2 ± 26.3 µM.

B1: PaCDTΔC (C-terminal-truncated PaCDT) (enzyme, Pseudomonas aeruginosa, UniProt Q01269 26-259, looked up)
chain: QESRLDRILESGVLRVATTGDYKPFSYRTEEGGYAGFDVDMAQRLAESLGAKLVVVPTSWPNLMRDFADDRFDIAMSGISINLERQRQAYFSIPYLRDGKTPITLCSEEARFQTLEQIDQPGVTAIVNPGGTNEKFARANLKKARILVHPDNVTIFQQIVDGKADLMMTDAIEARLQSRLHPELCAVHPQQPFDFAEKAYLLPRDEAFKRYVDQWLHIAEQSGLLRQRMEHWLE
For orientation: stoichiometry N means a count of units in the complex or per binding partner. As for B1, in “SEC-MALS”, the “stoichiometry N” value was determined as 3.

B2: Cyclohexadienyl dehydratase from Pseudomonas aeruginosa (PaCDT) (enzyme, UniProt Q01269 26-268, looked up)
chain: QESRLDRILESGVLRVATTGDYKPFSYRTEEGGYAGFDVDMAQRLAESLGAKLVVVPTSWPNLMRDFADDRFDIAMSGISINLERQRQAYFSIPYLRDGKTPITLCSEEARFQTLEQIDQPGVTAIVNPGGTNEKFARANLKKARILVHPDNVTIFQQIVDGKADLMMTDAIEARLQSRLHPELCAVHPQQPFDFAEKAYLLPRDEAFKRYVDQWLHIAEQSGLLRQRMEHWLEYRWPTAHGK
Take B2: the “stoichiometry N” value in “SEC-MALS” amounted to 3.

B3: Ws0279 (natural protein)
chain: QKSTLNEIIKRGELRVGLEPGYLPFEMKDKKGNVIGFDVDLAREMAKAMGVKLKLVPTSWDGLIPGLVTEKFDIIISGMTISQERNLRVNFVEPYIVVGQSLLVKKGLEKGVKSYKDLDKPELTLVTKFGVSAEYAAKRLFKNAKLKTYDTEAEAVQEVLNGKADMFIFDLPFNVAFMAQKGQGYLVHLDTSLTYEPLGWAIKKGDPDFLNWLNHFLAQIKHDGSYDELYERWFVL
With B3, the “stoichiometry N” value in data set [1] was 3.
